Target: A. franciscana ATP synthase c-subunit (c8-ring) (A. franciscana (endogenous in A. franciscana mitochondria))
Experiment: cryo-EM structure; single-particle cryo-EM of the ATP synthase monomer purified from A. franciscana mitochondria in DDM at pH 7.0; rotational states 1, 2 and 3a; local refinement of F1 and FO

A. franciscana ATP synthase c-subunit (c8-ring) (natural protein)
stoichiometry N: 8

Reference: article PMC12325954
